Our source for the Kd values is US20210069341A1 (published 2021).

One test concerns the target human FcRn protein (human, UniProt P55899 24-297; P61769 21-119). Description: binding affinity; pH 6.
Another test addresses T1, human FcγRI (human, UniProt P12314 16-288).
T1 chain: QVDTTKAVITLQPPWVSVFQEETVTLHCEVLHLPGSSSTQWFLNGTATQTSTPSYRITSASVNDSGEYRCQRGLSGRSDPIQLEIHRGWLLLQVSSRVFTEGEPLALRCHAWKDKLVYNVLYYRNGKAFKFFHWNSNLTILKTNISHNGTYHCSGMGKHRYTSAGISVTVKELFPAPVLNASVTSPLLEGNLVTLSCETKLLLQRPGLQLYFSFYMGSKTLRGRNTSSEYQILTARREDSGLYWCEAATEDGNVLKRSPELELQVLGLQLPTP
The experiment in a line: binding affinity.

Another test has as its target T2, human FcγRIIb (human, UniProt P31994 46-217).
T2 chain: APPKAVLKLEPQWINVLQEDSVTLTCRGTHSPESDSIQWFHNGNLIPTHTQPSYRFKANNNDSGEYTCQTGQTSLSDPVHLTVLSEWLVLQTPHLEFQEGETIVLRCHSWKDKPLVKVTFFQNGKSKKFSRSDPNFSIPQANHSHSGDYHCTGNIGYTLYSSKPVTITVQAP
Description: binding affinity.

Another test addresses T3, human FcγRIIa (human, UniProt P12318 36-218).
T3 chain: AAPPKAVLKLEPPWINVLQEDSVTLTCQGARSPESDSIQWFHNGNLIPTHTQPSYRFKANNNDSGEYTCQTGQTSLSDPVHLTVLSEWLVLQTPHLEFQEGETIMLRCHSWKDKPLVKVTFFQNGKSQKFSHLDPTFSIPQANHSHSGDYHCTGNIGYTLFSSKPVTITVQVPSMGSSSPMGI
The experiment in a line: binding affinity.

For test [1], the target named is human FcγRIIIa, 158F allele (human, UniProt P08637 17-208). Description: binding affinity.
The target of test [2] is human FcγRIIIa, 158V allele (human, UniProt P08637 17-208). Description: binding affinity.
human FcγRIIIa, 158V allele, sequence (P08637 17-208 F176V): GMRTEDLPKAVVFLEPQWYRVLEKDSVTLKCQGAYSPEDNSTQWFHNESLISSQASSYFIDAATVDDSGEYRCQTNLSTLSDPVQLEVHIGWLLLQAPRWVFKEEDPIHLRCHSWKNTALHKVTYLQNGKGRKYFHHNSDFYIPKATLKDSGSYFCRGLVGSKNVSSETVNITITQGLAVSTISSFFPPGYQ

human FcRn protein, sequence (P55899 24-297, chain 1 of 2): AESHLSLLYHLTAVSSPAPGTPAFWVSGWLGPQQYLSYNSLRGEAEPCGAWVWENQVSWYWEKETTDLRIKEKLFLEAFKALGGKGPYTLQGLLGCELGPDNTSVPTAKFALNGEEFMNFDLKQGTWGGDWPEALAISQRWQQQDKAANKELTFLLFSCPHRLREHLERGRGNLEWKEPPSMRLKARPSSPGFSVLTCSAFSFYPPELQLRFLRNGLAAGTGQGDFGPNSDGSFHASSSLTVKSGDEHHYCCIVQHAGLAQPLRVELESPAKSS
human FcRn protein, sequence (P61769 21-119, chain 2 of 2): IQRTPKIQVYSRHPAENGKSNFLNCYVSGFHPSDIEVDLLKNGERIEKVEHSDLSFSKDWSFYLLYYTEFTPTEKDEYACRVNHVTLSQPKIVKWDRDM
human FcγRIIIa, 158F allele, sequence (P08637 17-208): as the sequence (P08637 17-208 F176V) above, with V160F counted along it

B1: antibody with the C239ins cysteine engineered Fc region (Fc receptor affinity analysis) (antibody)
Fc: APELLGGPSCVFLFPPKPKDTLMISRTPEVTCVVVDVSHEDPEVKFNWYVDGVEVHNAKTKPREEQYNSTYRVVSVLTVLHQDWLNGKEYKCKVSNKALPAPIEKTISKAKGQPREPQVYTLPPSRDELTKNQVSLTCLVKGFYPSDIAVEWESNGQPENNYKTTPPVLDSDGSFFLYSKLTVDKSRWQQGNVFSCSVMHEALHNHYTQKSLSLSPGK
The term Kd denotes the concentration at which binding is half-saturated. On to B1, for which the Kd in the test with human FcRn protein is 1050 nM; with human FcγRI it was approximately 133 nM.

B2: antibody with the L234F/S239A/S442C triple mutation (Fc receptor affinity analysis) (antibody)
Fc: APEFLGGPAVFLFPPKPKDTLMISRTPEVTCVVVDVSHEDPEVKFNWYVDGVEVHNAKTKPREEQYNSTYRVVSVLTVLHQDWLNGKEYKCKVSNKALPAPIEKTISKAKGQPREPQVYTLPPSRDELTKNQVSLTCLVKGFYPSDIAVEWESNGQPENNYKTTPPVLDSDGSFFLYSKLTVDKSRWQQGNVFSCSVMHEALHNHYTQKSLCLSPGK
Turning to B2, the Kd was 976 nM in the test with human FcRn protein; 6310 nM with human FcγRIIb; 2540 nM in the test with human FcγRIIa; approximately 16 nM with human FcγRI; 5700 nM in test [1]; 1460 nM in test [2].
